Laboratory results taken from the DeepSol protein solubility set.

Experiment: soluble on expression in E. coli; label from the status in PepcDB or PDB records

| Sequence | soluble on expression in E. coli |
| --- | --- |
| MSLSNISLTTLGGVRENGKNMYIAEIGESIFVLNVGLKYPENEQLGVDVVIPNMDYLFENSDRIAGVFLTHGHADAIGALPYLLAEAKVPVFGSELTIELAKLFVKGNDAVKKFNDFHVIDENTEIDFGGTVVSFFPTTYSVPESLGIVLKTSEGSIVYTGDFKFDQTASESYATDFARLAEIGRDGVLALLSDSANADSNIQVASESEVRDEITQTIADWEGRIIVAAVSSNLSRIQQIFDAADKTGRRIVLTGFDIENIVRTAIRLKKLSLANEILLIKPKDMSRFEDHELIILETGRMGEPINGLRKMSIGRHRYVEIKDGDLVYIATAPSIAKEAFVARVENMIYQAGGVVKLITQSLHVSGHGNVRDLQLMINLLQPKYLFPVQGEYRELDAHAKAAMAVGMLPERIFIPKKGTTMAYENGDFVPAGSVSAGDILIDGNAIGDVGNVVLRDRKVLSEDGIFIVAITVNRREKKIVARARVHTRGFVYLKKSRDILRESSELINQTVEEYLQGDDFDWADLKGKVRDNLTKYLFDQTKRRPAILPVVMEAEGHHHHHH | not soluble |
| MTDKENFYSGFFLGRLPGSFDSRFLIKVACFQPGKEERNVFELTTDTKREEDYGEMVHFWVDKGPLQNKSFVRFEENYETFFIHENKMFDRIVHTDKDFYVGVNDLPDSDIYIHPDLGKMIDTRSIVTPGKKYNFITFEVKQNENNSFDIEIVGGEVQGKEKNSEEPSAKEKIIQKMEQVHEVMKVEYEYNKNEETANWDVIGHLKLIKFYDKDLTSGLRPVLRLMDNRHVALFKKQRETMPIKMIKVIEVDGIWKDDVNFVPQEGTLLPTDHDEKTVVLLGNDYRHKFERLFKREDVFRLESNNTLTHLKFWQYGLEKI | not soluble |
| MSLNIAVMEKGAAQPGDRLLSDVSLPALVIHNQALEHNIRWMQQFVTDSGAELAPHGKTSMVPALFRRQLDAGAWGMTLATAIQTQTAYAHGVKRVLMANQLVGAPNMAVIASLLADPMFEFHCMVDHPDNVAALGEFFAAHGLRLNVMIEYGVPGGRCGCRSEAEVLALADAVQAQPALALSGIEGYEGVIHGDQAIAGIKAFAASLVSLAVNLQDKGAFALDRPIVTASGSAWYDLIAEAFDAQAVRDRFLSVLRPGSYVVHDHGIYKDAQCCVLDRRAELSEALRPALEVWAHVQSMPEPGFAVIAMGKRDVAYDAGLPNPLLRYTPGVSSAPGDDVSACKVTAVMDQHAFMTVAADCELKVGDIISFGTSHPCLTFDKWRSGCLVDDDLRVIEPFHTCFEGHHHHHH | not soluble |
| EHKIILYENPNFTGKKMEIVDDDVPSFHAHGYQEKVSSVRVQSGTWVGYQYPGYRGLQYLLEKGDYKDNSDFGAPHPQVQSVRRIRDMQGNPKIIIFEQENFQGHSHELSGPCPNLKETGMEKAGSVLVQAGPWVGYEQANCKGEQFVFEKGEYPRWDSWTSSRRTDSLSSLRPIK | soluble |
| MGHHHHHAYTLSKSGKEKEEVDEILEEEAEVDELKSPESVVQLLHIDPIEFEFGYGLIPLADANQGGDLLDRIVMIRRQLALELGLVIPVVRIRDNIALQPNEYRLKIKGNEVAKGELLLDHYLAMSPTPEDDLIEGIETVEPSFGLPAKWISEAVKDEADMLGYTVVDPASVVSTHITEKIKQHAHELIGRQETKQLIDHLKESYPVLVEEVTPNPLSVGDIQKVLAKLLKEKVSIRNLVTIFETLADYGKLTTDSDLLTEYTRQALAKQITAQFAKENEVLKVVTCSGRVEKAIADGVQQTEHGNYLSLEPDISESIVRSVAKEAEQLSLRQETAILLCSPPVRMYVKQLLERYFPDLPVLSYNELEANVEVQSIGVVDI | soluble |
| MTTLTLNTSLLSSRRILAAFSGGLDSTVLLHQLVLWRERHPDVTLRAIHIHHGLSPHADSWVRHCETVCERWQVPLVVERVTLADNGLGIEAHAREARYRAFAQTLLPGEVLATAQHLDDQCETFLLALKRGSGPAGLSAMGERSPFAGTLLLRPLLRETRKTLEQWAVRHGLCWIEDESNQDDAYDRNFLRLRALPLLQQRWPHFPAAVARSATLCAEQERLLDELLASDLTDCITAEGTLRLSPLMSMSDVRRAAILRRWLAMRNAPMPSRDALERIWQEVALARDDASPCLRFGDHEIRRYQSQLWWIKSVAGQHETTVAWPVWQTPLALPAGLGTVQLVPGGELRRPREEESVSIRFKAPGVLHIVGRNGGRKLKKIWQEQGIPPWRRDTTPLLFYGETLIAAAGVFVTREGAAEDKEGVSLVWHA | not soluble |
| MPMFNTLTSLFKQLLEGQDLAQHSATPELAIACLLSEVAGADQQISAPEQQAKLALLQHLLQCTAEQASDLLMRAEQEVKQSASLYDFTSQLRSLSQTQRFELIKAMWEVANADGTIDPLEDAVIRKAAELLYVDHSQFIRAKLMAADKHQSPE | not soluble |
| MGSDKIHHHHHHMVHSTPTTFAGSKSARPRVAIAGFQHETNTFAPFGAPFDDFVRGGGWPAMTTGAAILDVFPPIEIPIGGFISAAKDTYELIPLVWAAAEPTSFVSDDAFERIAGMICDGIARAGPLDAIYLDLHGAMVVESYQDGEGELLRRVREIVGRDIPIMISLDFHANVTEAMVELSDGITIFRTYPHIDLADTGGRAFSLLEQRIRRGRPFIKAFRKTPFLIPLPAQCTDLEPCMSLYAGLQERVKGPVLNVDVALGFPLADIRECGPAVVAYGIDEVAVTAAADMQLSDMLEAEGRFHMSLLDVKEAVEHAARNGRKGSLIVLADVQDNPGCGGTSDTIGLLKGMVEGGLRNGVLGLLWDPETAEAAHTAGLGAELDVRLGGRYGYDSEPYLARVRVEALSDGVFKANGPCLGGVQVDLGRMARLLILNPGSSVQVVVSSVRFQCLDQDLLRAVGVEPRDQSVVAVKSAVHFRADFAPIAEEILTVESPGAHWCRNDILDYKNLRDGVRRMPISLATQPSEVKIAERRH | not soluble |
| MSSISLIQPDRDLFSWPQYWAACFGPAPFLPMSREEMDQLGWDSCDIILVTGDAYVDHPSFGMAICGRMLEAQGFRVGIIAQPDWSSKDDFMRLGKPNLFFGVTAGNMDSMINRYTADRRLRHDDAYTPDNVAGKRPDRATLVYTQRCKEAWKDVPVILGGIEASLRRTAHYDYWSDTVRRSVLVDSKADMLMFGNGERPLVEVAHRLAMGEPISEIRDVRNTAIIVKEALPGWSGVDSTRLDTPGKIDPIPHPYGEDLPCADNKPVAPKKQEAKAVTVQPPRPKPWEKTYVLLPSFEKVKGDKVLYAHASRILHHETNPAVPAH | not soluble |
| MEHIRRVAELAREIARNNGLDPERAYLAGLLHDAARDLPEEELRRLAPPENEVEEAHPLALHGRAARALAASWGVRDEEVLEAIEGHVYGVDPENGIGMALYVADVSEPGRGVNEEIRELALAGRLKEAYRLAVRNKVHYLKAKKIPIHPRTLEVYHSL | soluble |
| MEQKYEEDIQKLQQEIEMLEAEQEETLRSIFVQHGDRLQQGVKSACEERGGGGAQQHTLSKLITEVRELEKDLRRQTEINGITLNECFVKTLHKSERKLIQQLRLAGHCGLLLFQVEFAVTEIQEDNVLHRRVTELNIVVDGVEFKDFSAFVSRVEDTKDLLLFFRTLRTFSERCEDRRQTFQHFQEKYPDVVNLPEGCRSEIMIIRSPQLPGISMTLFWKIHVSKEGVVKPLLDLLLKMPDQALELDTKKVMEKASDYFQSLLQLLGVEASIEGLIRTVCS | not soluble |
| MADLSFIEDTVAFPEKEEDEEEEEEGVEWGYEEGVEWGLVFPDANGEYQSPINLNSREARYDPSLLDVRLSPNYVVCRDCEVTNDGHTIQVILKSKSVLSGGPLPQGHEFELYEVRFHWGRENQRGSEHTVNFKAFPMELHLIHWNSTLFGSIDEAVGKPHGIAIIALFVQIGKEHVGLKAVTEILQDIQYKGKSKTIPCFNPNTLLPDPLLRDYWVYEGSLTIPPCSEGVTWILFRYPLTISQLQIEEFRRLRTHVKGAELVEGCDGILGDNFRPTQPLSDRVIRAAFQLEHHHHHH | soluble |
| ATEEEYQLFLEPYLQETRLGAYDFPLFSTIFKAFSKKGSFKSLIDPYCFGQALSNGRAITFVVTHDIPNNDVFLDLIMDEEDEWIAYAYILGRDGGVPLVYTDLDTSGIKNKNGKPRWKDAWNDPRMAKMIAFHNVTHGESMTVLEGNDDMLVLKRGEKGIVVLNKSTRAQSLSLKTECDWFDLMSDQSVKAGIELKVPAKSFMLLVQK | not soluble |
| SKDVLADYKELFRQFSISDIAVWVSTPSFAGVCITEKEFNSKMLPNLESMIFIGEALSKNLTKELMSRFPNTRIINGYGPTEATVGVSVNDMTQKAIDDEK | not soluble |
| MSRAVRPYLVLATQRSGSTLLVESLRATGCAGEPQEFFQYLPSTGMAPQPREWFAGVDDDTILQLLDPLDPGTPDTATPVAWREHVRTSGRTPNGVWGGKLMWNQTALLQQRAAQLPDRSGDGLRAAIRDVIGNEPVFVHVHRPDVVSQAVSFWRAVQTQVWRGHPDPKRDSQAVYHAGAIAHIIRNLRDQENGWRAWFAEEGIDPIDIAYPVLWRNLTAIVASVLDAIGQDPKLAPAPMLERQANQRSDEWVDRYRAEAPRLGLPT | soluble |
| SNAMKIIFSASPANRAAAYALRQAVFVEERGISADVEFDVKDTDQCEYAVLYLQPDLPITTLRLEPQADHVMRFGRVCTRKAYRGHGWGRQLLTAAEEWATQRGFTHGEIHGELTAQRFYELCGYRVTAGPYDEDGAPVVIMHKQLL | soluble |
| MGSDKIHHHHHHMFDWENVRHFLAVARIGTLSGAARSLKVDHATVSRRLSALEDEIKTRLIERLPRACKLTLIGQRVFELAQGMEEDAYAIERFVDASRSPLSGKVSLSAPPVLVAHFLAKHLADFRRVHPGVQLSVSGEARQISLSRREADVALRLVRPEEGTSVVRKLGRMSFDLYASRDYPHLHNPSAWEFISYDAGFTDMPQQKWLMSVARGRPIACEISDINGHLAATQAGAGVAGLPDFLADTDAKLQRVAYDGEPFSRDIWLAVHRDLRRSPHVRAVMDFLLKIVKENPAFTISG | not soluble |
| MSQFAVIIFGDQAKANEASRVLTELQADNSLVLFSQAVIAKDLAGTVSLMAPASGGAVGSAVSGLASRLIGVPVGGHGDLSDAGVLDSFCQEAADALKPGATAIVAEISEDRLGPLNTQMHALGGQVLRSCNSDSEGDEIAKQTARQIANIERLNAEYVRAPQDADKPGETPVDAVTLAPDERASNQSIVKANAEARSAKLSQACGLTKDALG | not soluble |
| MSLDSLDKSKLERMLDIKEAHREGHLTLEEAKERMKKEVGSISPEEFAAAEQLFKERDQDECQNEDVRTMLQLFEGLINPIRPDLPFGHPIDAYLRENDKAKELLDQADALLERTFIPNPWIELMETLMGYKLHFARKQNQLYSTLEQKGFDRPSTTMWTYDDHIRDEMNKAMSLLREKDYDSFPAAYKEMAIVLRDLMEKEELILYPTSLKLISDKEFEEMKHGDREIGFFLIDMPELDAPAKQSKEAHGQSFMAELGALLAKHGMGTGGQDDKAILDVAEGKLTLEQINLLFRHLPVDISFVDENELVCFYTDTKHRVFPRSKGVIGREVRNCHPPKSVHIVEEIIDKFRRGEQDRAEFWINKPGVFIYIVYVAIRDADGRFRGVMEMMQDCTRIRSLEGSRTLLTEGHHHHHH | soluble |
| MNIQALINDKVSQALEAAGAPAGSPAAVRQSAKPQFGDYQANGVMGVAKKLGTNPREFAQKVLDVLDLDGIASKTEIAGPGFINIFLSEEFLAKQADAALADSR | not soluble |
